Assay [1] concerns the target LMP-1 transmembrane helix 1 synthetic peptide (TM1) (Epstein-Barr virus). In words: AUC.
Assay [2] has as its target LMP-1 TM5 D150A synthetic peptide (Epstein-Barr virus). In words: AUC.
Assay [3] addresses Latent Membrane Protein 1 D150A, full length (Epstein-Barr virus) (UniProt P03230).
Assay [4] shares this target. This is another data set of the same source.

The text below walks through data of PMC3192311.

“And” between values parts separate entries of the source, which are not always exact repeats. Equal entries are not always repeated.

Usually stoichiometry N stands for a count of units in the complex or per binding partner. Turning to “LMP-1 transmembrane helix 1 synthetic peptide (TM1)”, the stoichiometry N in assay [1] is 2 and 4.

Regarding LMP-1 TM5 D150A synthetic peptide, the stoichiometry N in assay [2] turned out to be 2.

For the substance “Latent Membrane Protein 1 D150A, full length (from UniProt P03230 1-386) (natural protein)”, the NFκB luciferase reporter assay in HEp2 cells, luciferase against empty vector in assay [3] amounted to 1.2 times. Moreover, the p65 nuclear translocation in HEp2 cells, % of exp + cells with nuc p65 (TR > 1) in assay [4] was determined as 38%.
